For experiment [1], the target named is T1, human α4β7 integrin (human, UniProt P13612 34-1032; P26010 20-798).
T1 construct: whole, on cells; assays run with Mn++; also called α4β7 on HUT 78 cells; α4β7 on RPMI 8866 cells
The experiment is described as follows: inhibition of RPMI 8866 cell adhesion to huMAdCAM-1-Ig.

For experiment [2], the target named is T1, human α4β7 integrin. The experiment is described as follows: inhibition of HUT 78 cell adhesion to murine MAdCAM-1/mCk. How it is done:
The assay was performed in a 96-well format. Plates were coated overnight at 4° C. with 53 μl/well of a 5 μg/mL solution of rat anti-mCk in carbonate buffer. The plates were blocked for 1 hour at 37° C. with 100 μL/well of 1% BSA in PBS. The BSA/PBS solution was removed, and 50 μL of MAdCAM-mCk supernatant was added neat to each well. The assay was conducted under conditions in which capture antibody was the limiting reagent.
Cell adhesion was measured in the presence or absence of compounds. The compounds were resuspended in 100% DMSO, subsequently diluted 1:10 in water, and finally diluted again 1:10 in the assay: 50 μL of 2X Assay Bufler, 30 μL water, 20 μL of compound were added to each well.
Over this range, Four different concentrations were tested in duplicate.

Bridge positions count the residues as written; N and C are the ends. Ends that are not written are not given here. R1 = not defined here

B1: R1-Leu-Asp-Thr-Ser-Leu, L# 1276 (Table 4) (peptide)
peptide: R1-LDTSL
modifications: reading uncertain; also: printed as R1-Leu-Asp-Thr-Ser-Leu
notes: not tied
With B1, the IC50 (usually the point on the concentration scale where inhibition reaches its midpoint) in the experiment with human α4β7 integrin [1] was 2700 nM.

B2: Ac-Cys*-Gly-Leu-Asp-Thr-Ser-Leu-Gly-Cys* (peptide)
peptide: Ac-CGLDTSLGC
modifications: disulfide 1-9; not fully specified (C-terminus); printed as Ac-Cys*-Gly-Leu-Asp-Thr-Ser-Leu-Gly-Cys*
notes: also called Ex No 5; 00145-1B
Molecule B2 gave an IC50 with human α4β7 integrin [2] of 266 µM.

These data come from patent US20020103111A1 (Takeda / Millennium, published 2002).
